B1: EpCAM binding FN3 domain clone 1807 (designed binder)
chain: MLPAPKNLVVSRVTEDSARLSWTAPDAAFDSFYIRYYEGSGYGEAIVLTVPGSERSYDLTGLKPGTEYYVYIGGVKGGSPSSPLSAIFTTG
notes: not shown: No entry is named H9
B2: EpCAM binding FN3 domain clone 1420 (designed binder)
chain: MLPAPKNLVVSRVTEDSARLSWEGYRNNAHFDSFLIQYQESEKVGEAIVLTVPGSERSYDLTGLKPGTEYTVSIYGVVAAVPRNYYSNPLSAIFTT
notes: as for B1
B3: EpCAM binding FN3 domain clone 639 (designed binder)
chain: MLPAPKNLVVSRVTEDSARLSWTAPDAAFDSFSISYRERSAWGEAIALVVPGSERSYDLTGLKPGIEYIVGIIGVKGGLRSNPLRADFTT
notes: as for B1
B4: EpCAM binding FN3 domain clone 1874 (designed binder)
chain: MLPAPKNLVVSRVTEDSARLSWTAPDAAFDSFKIGYWEWRKYGEAIELNVPGSERSYDLTGLKPGTEYRVLIYGVKGGAGSHPLRALFTT
notes: as for B1
B5: EpCAM binding FN3 domain clone 680 (designed binder)
chain: MLPAPKNLVVSRVTEDSARLSWTAPYAAFDSFAISYRERSREGEVIALTVPGSERSYDLTGLKPGTEYIVGILGVKGGRRSKPLRAQFTT
notes: as for B1
B6: EpCAM FN3 domain-MMAF conjugate of clone 639 (designed binder)
chain: B3 chain
modifications: VC-MMAF (maleimide) on a cysteine; position of the cysteine not stated
B7: EpCAM FN3 domain-MMAF conjugate of clone 680 (designed binder)
chain: B5 chain
modifications: VC-MMAF (maleimide) on a cysteine; position of the cysteine not stated

biological target: T1, human EpCAM on COLO-205 cells (human, UniProt P16422 24-314); assay: flow cytometry, periplasmic extract of soluble Centyrin on COLO-205 (EpCAM+) cells
T1 construct: whole, on cells; Endogenous EpCAM of the EpCAM-positive cell line COLO-205; also called epithelial cell adhesion molecule; Colo205 (EpCAM+)
T1 sequence (looked up): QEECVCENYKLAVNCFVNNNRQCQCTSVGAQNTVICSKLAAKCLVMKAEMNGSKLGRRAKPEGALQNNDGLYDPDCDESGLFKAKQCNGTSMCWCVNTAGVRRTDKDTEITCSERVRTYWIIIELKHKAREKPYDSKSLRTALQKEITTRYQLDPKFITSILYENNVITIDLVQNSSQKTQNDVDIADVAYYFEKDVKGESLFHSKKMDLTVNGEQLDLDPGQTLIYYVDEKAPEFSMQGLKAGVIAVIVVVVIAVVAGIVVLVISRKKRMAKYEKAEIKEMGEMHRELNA
Description: (§1) Three rounds of CIS display panning on recombinant huEpCAM protein (R&D Systems) were performed using TCL23 as described previously. The output from Round 3 was amplified and cloned into phagemid vector containing truncated pIII. An additional 4 rounds of selection on recombinant protein human EpCAM and Colo 205 (positive cells) with negative selection on A375 (negative cells) was performed. After 4 rounds of selection on recombinant protein and Colo 205 cells, 96 individual clones were assayed for binding to Colo 205 cells by phage ELISA; EpCAM negative cells (A375) were used as a negative control. Phage binding was assessed using a labeled anti-M13 antibody. Clones that were positive by phage ELISA were subcloned into a bispecific Centyrin expression plasmid where the carboxy terminal domain was an albumin binding Centyrin (H9). Soluble Centyrins were expressed, recovered from periplasmic extracts and assessed for binding to Colo205 (EpCAM+) and A375 (EpCAM-) (Table 4).

Row | Mean BL-1 P.E. COLO-205 | Binder
1 | 12900 | B1
2 | 22600 | B2
3 | 10100 | B3
4 | 27100 | B4
5 | 10400 | B5

biological target: T1, human EpCAM on COLO-205 cells; assay: cell-based or functional assay

Row | Binder | IC50 of EpCAM FN3 domain-MMAF conjugate molecules in COLO-205 Cells (cell viability, Cell TiterGlo, 72 hours)
6 | B6 | 2.2 nM
7 | B7 | 0.11 nM

biological target: T1, human EpCAM on COLO-205 cells; assay: flow cytometry, ratio of the signal on COLO-205 (EpCAM+) to that on A375 (EpCAM-) cells
Description: as §1

Row | COLO-205/A375 | Binder
8 | 4.4 | B1
9 | 25.8 | B2
10 | 11 | B3
11 | 12.1 | B4
12 | 11.9 | B5
